According to the supplement of paper PMC12042874:
± gives the uncertainty stated by the source.

Assay: amyloid nucleation score (Sup35N fusion, yeast selection) (log enrichment); library NNK1; higher = more nucleation; inactive = no reads after selection
Summary of the method: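 The nucleation score is the log enrichment of output over input reads, calculated with DiMSum and centred on the mode score of non-aggregating sequences. Sequences with under 100 input reads were excluded. Reads came from Illumina sequencing of plasmid inserts from psi-negative yeast expressing Sup35N fused to peptides of 20 random codons, induced 24 hours with 100 μM copper sulfate and grown 7 days at 30°C without adenine and uracil.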

Substance | amyloid nucleation score
LSNYYHDGILVIMRSATNDH | 1.61 ± 0.41
LVTRGFEVRGDHQVIKYFLA | -0.6 ± 0.49
SSFLFSFWGAIGSIKSTFFW | -0.054 ± 0.24
RRRCSSVGRDLMAGSDKRYE | 0.663 ± 0.24
NGITLLGAVAFTVFLLYPRT | -0.215 ± 0.41
IRDRMLMCDGKRLNTLLEHI | 0.145 ± 0.49
DSSSYICSLSSPYSWSISFF | 7.366 ± 0.07
MLSVSWFAVAMVYMGMNNTC | 2.04 ± 0.48
SNLVGEVYCNL | 0.914 ± 0.57
RGGSYMFRLYCVFLYGCYFG | -0.577 ± 0.72
YKVCRMCAKGCSDSFRPVRA | 0.555 ± 0.48
SLDYVSQFIQLLRFFKFYMV | inactive
FSVAGSE | inactive
FYFRPNDQSWYVTRLFLSPA | 0.491 ± 0.93
AWIRGQTVSCLYYAEGLELG | -0.448 ± 0.71
VNHCMMHEYLGGLLSSVIG | 0.773 ± 0.24
QSTLGGSKHAWLIENGGFGF | -0.685 ± 1.1
PMNNIVFYGGYLISAFRVRL | 6.46 ± 0.089
NHGCQIFRG | 0.667 ± 0.64
RKNFMGSEFVLDNILCLFLL | 7.583 ± 0.055
LRFMCRYFLRQRNYEPWFYG | 0.1 ± 0.55
YISDSLYGFDEVGRDWLRVA | -0.025 ± 0.56
DLRKAGGWHRVIC | 0.111 ± 0.56
SIANVSFW | 1.59 ± 0.18
VSNNYRDV | 0.807 ± 0.72

Substance | amyloid nucleation score
DWWLPGMLMNRGGLQIVVLV | -0.84 ± 1.1
VHWLNCRLLGSLWVVGANWL | inactive
LVALPMWIF | 0.402 ± 0.41
GFYFSYSWVRRSRNSKSMAS | 0.418 ± 1
SNSSMWAYRVC | 0.497 ± 0.74
LFRGDGFRKLLFWNSSTFET | 2.67 ± 0.12
VGITDSNRVLILSGQIHGVM | 0.6 ± 0.46
SGGSLVFVCYGRNF | -1.35 ± 1.1
LQTSRHFSLRWWCMYSWGNS | 1.41 ± 0.51
VNSTEGP | -0.989 ± 2.7
CNCVWRCWV | 1.14 ± 0.78
DLEGMPELARDVGAKI | -0.825 ± 0.98
FWTRCVFLLRGNSMWESCRG | -0.385 ± 0.9
SFKWVVRVWRCRILWNSGVS | 0.001 ± 0.78
NVVYMYSSASEYVWHRRLGF | -0.993 ± 0.43
ITLCVNRLRFRVKLNHQSSF | inactive
SSRYFLFLAHTHWLCTMTCP | -0.064 ± 0.8
ARIEFSGWFHPQLDLVFFVQ | 1.97 ± 0.15
ERVSRSVGPACAREETKGST | 0.354 ± 0.77
LRVKSSGDLSLSGSFDCDV | 0.199 ± 0.64
PCSFNA | -0.267 ± 0.72
QFEDLHQLYSMCALPDSTKH | -0.366 ± 0.93
QSVHDTHSCHGSH | 0.5 ± 0.63
THLVAPRSWLFIGPCRTKAS | 0.385 ± 0.89
VAKAPSNSCTLCHDWYGRST | 0.101 ± 1.4

Substance | amyloid nucleation score
DSSRTLFCRAHWGSRFNGRG | -1.69 ± 2.4
FERCLNPGYCINFAGCESVV | 0.581 ± 0.51
LRKVGQGI | 0.066 ± 0.67
SSFKWLAASWLQGALHTMRG | -0.348 ± 0.79
WVNVTRVNGRDEGAPSIRNK | -0.787 ± 0.4
VAMLQFASFQSSW | -0.323 ± 0.39
HIYSF | 1.26 ± 0.12
FLRSIKWVTVVS | 0.51 ± 0.28
INNHKIDQTML | -0.541 ± 0.84
EASLAPYEESELA | 1.76 ± 0.54
DCGAWGHTLVSWSKYLGKSF | 3.64 ± 0.092
YHGRRVPRDVTNQRTMAQCD | 3.66 ± 0.087
MFTYDGRVEWVLA | -0.133 ± 0.45
AVVMTLIVYALGYT | 1.27 ± 0.3
LHNYLLCTRVNRIDVLRMTL | -0.854 ± 0.37
WHYNMLYCLLRRSRLCWNIV | -0.403 ± 0.48
RKSFLTLVNFYYLFRC | 3.1 ± 0.12
IGGCWLLQMN | 0.369 ± 0.44
GYKRFYLLVKLYVFERINIA | -0.244 ± 0.31
VSSYAIYEECNLPGKAGKPC | -0.213 ± 0.63
NYFSQKWFTTGRTPRMMDMW | -0.007 ± 0.32
SSDSVSLYYLISYTPFGRFN | inactive
PIDAPISQLGLCMFGYQEGL | -0.999 ± 1.3
SRMWMFFDCIISIINMAEDT | 7.449 ± 0.051
VFSIIRPGMASSLHGQVQIA | 1.28 ± 0.69

Substance | amyloid nucleation score
HAVQLRYLKKKWGWYALCKR | 0.712 ± 0.72
RYWCCSPVRSLVHGRHCEV | 1.52 ± 0.24
LQILLLVSCLSQYAANKRRA | -0.291 ± 0.57
LVTDPWISTLSSFHLWGGFM | 0.887 ± 0.7
GTSSGLV | 0.104 ± 1.1
LFTTWMSRGDIVSYNFFL | 7.681 ± 0.049
QLTPTLCDRSRCCPGGLFVY | 0.631 ± 0.58
LGLTYWCYNFIQGDVFPPVQ | 3.46 ± 0.15
TTHLSHIYLLDASYNYKDSR | 0.27 ± 0.36
NQTNFDVSLY | 4.64 ± 0.055
AVSLRWCTGINGADKSCAYQ | 1.19 ± 0.43
STHSDGVGML | -0.805 ± 1.2
APVSIKCRFL | 0.357 ± 0.55
GSVAKRPVVKISRHPLCMVW | 0.364 ± 0.24
GYRCMHLWTRSPSFIRPVVS | 0.67 ± 0.97
ICVNESKKVFQVFIANIGRG | 4.86 ± 0.07
MLKMTVYFHIMID | -0.065 ± 1.1
MFCKAVSKERWMV | -0.269 ± 0.92
GERDACYPKSLD | -1.06 ± 2.4
LFRIPDWPEL | -1.07 ± 0.77
SCHYDQPDQKLLASQSLL | -1.02 ± 0.68
IYLPRNVFRLTWFYLSQSLA | 0.639 ± 1.1
VSVGR | -0.153 ± 1.4
LNSSIYDLSHTVAGCHPALT | -0.293 ± 1.3
NWGCFQYSGTGNRLGTNAPV | -0.999 ± 0.68

Substance | amyloid nucleation score
YTVMVVI | 1.44 ± 0.4
TEIILYSILLSMYDLMFVVI | 0.268 ± 1.4
CDRFWMELG | -0.267 ± 0.4
AWYWAMAIMRVSIKVWPLLL | -0.713 ± 0.7
YYNVYTTYTASVWGTYRWNV | -1.45 ± 0.82
HLKGHFEGWGLIICVSSGFD | 2.08 ± 0.14
YGNYGCLGRWNSLHTCSQIC | -0.913 ± 0.67
HNSRWTRFRHLCSYITYGGC | -0.396 ± 0.58
SAVGYISLLYNSWAKYTICN | -0.562 ± 0.69
YLFAWSWEDGFYTGACRLLA | 0.006 ± 0.29
KNFFPFAFVFL | 7.083 ± 0.053
KNALWVRTVKNMCVLWDTGF | -1.08 ± 1.4
SWNYLVTDAKRRDGGEERVR | -0.851 ± 1.7
AQFSTKPQQRIP | 1.51 ± 0.56
KTPLYLPYLYFSIRLMCYWY | -0.47 ± 0.21
CVCYRTDRVARTGCNEPSMQ | 0.177 ± 0.59
GMMHFGCGFSFWWNNFRQWW | 2.49 ± 0.19
AGSLAM | -0.246 ± 0.48
ILVSYLSLPT | 0.802 ± 0.42
VNDWALVLSNLDSNVLSSRT | 0.566 ± 0.24
HYLISSCWIIRSGWADGTGR | 1.01 ± 0.15
EFDFK | -0.716 ± 0.74
YINLDHCRMSSSTA | 0.85 ± 0.65
VGSKVYMTSAAMYFVNRGFV | 6.11 ± 0.081
RNFWF | 0.078 ± 0.34

Substance | amyloid nucleation score
IQAMGGRMSRAV | -0.073 ± 0.77
VSRFFGNRRTNSNENTAGVA | -1.15 ± 0.43
IMAGHFRL | 3.69 ± 0.082
SIPYSRRVF | 0.103 ± 0.41
VFLHVES | 1.85 ± 0.59
GFRYEPNWSLSFPGV | 0.214 ± 0.41
AEHNYVRRELAGEPNLV | 3.11 ± 0.095
ACSPSLVL | 1.52 ± 0.84
GYKGQCIIYSTVDSRN | 0.07 ± 0.35
EKGRFVRLDERLYYLCVVWS | 0.163 ± 0.66
GMHLVKQVQGYRVRAEYSLF | 0.98 ± 0.92
SKYGAYGRMVSSNLDT | -0.204 ± 0.84
IWSGATV | 0.445 ± 0.41
RWSWTVIMSMEADGCFRLHL | 1.68 ± 0.28
IRGTTRAFLANQGCDVLYTG | -0.865 ± 0.86
QFILRDNVVRRMKFRGVPNF | 2.22 ± 0.55
ARGCD | -0.247 ± 1.1
VCTCTLVVDSTLCLGSVGTA | 2.04 ± 0.18
FLSYDMLYVKLT | 2.44 ± 0.16
CPVNDMGVWGKMACWNNRV | -0.691 ± 0.54
NVIID | inactive
DGFKAALICAIANY | 0.397 ± 0.3
TFSTGRACLNEVRNVGMFKM | 0.75 ± 0.54
NRSGGTSAIDYHSWLVYHAG | -0.161 ± 0.28
SIRSFMIVL | 3.49 ± 0.13

Substance | amyloid nucleation score
EAVSPYMYNYFRMANEQ | 0.311 ± 0.42
IIWIRAVPLMTRNEGVCECG | -0.982 ± 1.8
CWVCNEKRAFRRPVSNQLRV | -0.146 ± 0.85
VCFTYNFSPQLVL | 0.098 ± 0.38
VRNVG | -0.14 ± 0.59
SNQTLPWYK | 0.043 ± 0.53
NVRYFLWGNAETIYL | 0.769 ± 0.29
AYMWLGAINICLWYWSLGR | 3.02 ± 0.21
QGHCGTYHSGGSVNRLPHGV | 0.209 ± 0.39
RKNAFDFDAS | -0.099 ± 0.42
SKLLNVDLTPCRSRTTLFVC | 1.29 ± 0.47
HWLSAMIGVPEHGH | -0.121 ± 0.33
GEIGNIPLMKRRTEWQFVVA | 0.25 ± 0.47
CFIDQYVVTNCSLLTYFM | 0.145 ± 0.88
YRLVP | -0.186 ± 0.46
VGSCCNQ | 7.591 ± 0.046
NLSFLK | -0.313 ± 1.3
NLDKNGYRTCNLKISYHMSR | 1.28 ± 0.32
LSKVVFGLWFCT | 0.299 ± 0.34
MWAAGDNHYSNKVLSLAMVV | 0.501 ± 1
VCLRLARWILHQKHTYVYWY | inactive
ARFRYVESSRQMSMNVVCLT | 0.194 ± 0.38
GVLLGVTSFEFFMGTLEVAW | 0.188 ± 1
MGRQEASMKRCTSGDVGGWL | 0.523 ± 0.78
